Patent US20180208655A1 (VENTANA MEDICAL SYSTEMS, published 2018)

Target: T1, human GPNMB (transmembrane glycoprotein NMB) (human, UniProt Q14956 23-572)
T1 construct: Endogenous GPNMB in human FFPE tissues and cells (IHC), A375 cell lysate (Western blot) and A375 cells (flow cytometry)
T1 sequence: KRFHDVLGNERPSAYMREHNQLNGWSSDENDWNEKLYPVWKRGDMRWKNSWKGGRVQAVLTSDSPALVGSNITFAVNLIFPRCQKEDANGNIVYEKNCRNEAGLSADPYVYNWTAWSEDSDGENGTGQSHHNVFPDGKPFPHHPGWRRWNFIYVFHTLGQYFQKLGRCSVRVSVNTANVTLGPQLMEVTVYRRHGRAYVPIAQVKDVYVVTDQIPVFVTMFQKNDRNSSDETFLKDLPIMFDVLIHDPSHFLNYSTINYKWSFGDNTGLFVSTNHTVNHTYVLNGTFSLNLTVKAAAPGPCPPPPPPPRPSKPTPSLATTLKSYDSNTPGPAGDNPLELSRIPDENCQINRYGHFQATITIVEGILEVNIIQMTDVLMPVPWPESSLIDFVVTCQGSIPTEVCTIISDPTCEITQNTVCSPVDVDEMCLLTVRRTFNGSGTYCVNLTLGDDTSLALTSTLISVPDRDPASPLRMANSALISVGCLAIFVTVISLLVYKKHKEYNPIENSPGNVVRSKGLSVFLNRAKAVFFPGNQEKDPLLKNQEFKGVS
Assay: IHC screening of recombinantly expressed clones (after ELISA screening on the GPNMB antigen)

binding result: binds
B1: rabbit anti-human GPNMB monoclonal antibody (SP299) (antibody, V domains shown)
VH: QSLEESGGGLVKPGGTLTLICTVSGIDLSTYGVIWVRQAPREGLEWIGFITRSGTTDYAAWANGRFTISKTSTTVDLKIASLTAADTATYFCARGGYRFNLWGHGTLVTVSS
VL: DPVMTQTPASVSEPVGGTVTIKCQASQSIYSYLAWYQQKPGQPPKLLIYKASSLESGVPSRLSGSGSGTEFTLTISDLECADAATYYCQGGYISTTVSFGYGFGGGTEVVVK
notes: also called anti-GPNMB antibody SP299; Anti-GPNMB monoclonal antibody (SP299)
